Data as given in patent publication US20200354475A1 (KITE PHARMA, published 2020).

Target: T1, CAR comprising the anti-CD19 scFv FMC63 (SEQ ID NO: 1)
T1 construct: also called FMC63 CAR; CAR presenting the anti-CD19 scFv FMC63; not shown: rest of the CAR (hinge, transmembrane and signalling domains) is not described for the constructs used
Test: immunohistochemistry on fixed cell pellets of CAR T cells presenting the FMC63 scFv, PBMC as control
Procedure: Several antibodies disclosed herein, (Clones 7 and 13) were assessed with respect to their ability to function as reagents in immunohistochemistry (IHC) studies. To create the fixed cell pellets for IHC staining, ˜2e6 CAR T cells presenting the anti-CD19 scFv FMC63 (SEQ ID NO: 1) were centrifuged and washed with PBS. The cells were resuspended in PBS containing 0.45% paraformaldehyde (PFA) and incubated on a shaking platform for 2 hours at room temperature. After the incubation, the cells were washed once more with PBS and resuspended in PBS with 5% BSA.

T1 sequence (chain, as listed by the source): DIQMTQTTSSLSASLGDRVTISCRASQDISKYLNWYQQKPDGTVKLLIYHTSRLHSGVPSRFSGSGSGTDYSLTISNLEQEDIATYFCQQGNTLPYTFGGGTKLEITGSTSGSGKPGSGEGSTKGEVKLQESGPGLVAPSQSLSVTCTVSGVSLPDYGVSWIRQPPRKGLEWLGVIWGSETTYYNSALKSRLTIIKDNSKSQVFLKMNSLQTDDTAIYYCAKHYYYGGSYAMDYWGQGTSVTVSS

binding result: binds
B1: Clone 7 (antibody, V domains shown)
VH: QEQLEESGGDLVKPGGTLTVTCKASGFSFSNNGICWVRQAPGKGLEWIGCLYVGSSDTTYYASWAKGRFTISKSSSTTVTLQMTSLTVADTATYFCTINLGLWGPGTLVTVSS
VL: AIVVTQTPSSKSVPVGGTVTINCQASESVYNSDWLAWYQQKPGQPPKQLIYAASTLASGVPSRFKGSGSGTQFTLTISDVVCDDAATYYCAGYKSSSTDGIAFGGGTEVVVKG
notes: Rabbit monoclonal antibody from a hybridoma; also called antibody Clone 7
